PMC2964679, “Characterization of exceptionally thermostable single-stranded DNA-binding proteins from Thermotoga maritima and Thermotoga neapolitana” (BMC Microbiology, 2010)

T1: TmaSSB (Thermotoga maritima MSB8 (DSM 3106), UniProt Q9WZ73 1-141)
T1 sequence: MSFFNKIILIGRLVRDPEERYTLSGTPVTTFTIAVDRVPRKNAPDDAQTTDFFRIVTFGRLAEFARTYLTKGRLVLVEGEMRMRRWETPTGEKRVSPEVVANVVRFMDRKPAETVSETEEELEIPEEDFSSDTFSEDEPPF

T2: TneSSB (Thermotoga neapolitana DSM 4359, UniProt D1M925 1-142)
T2 sequence: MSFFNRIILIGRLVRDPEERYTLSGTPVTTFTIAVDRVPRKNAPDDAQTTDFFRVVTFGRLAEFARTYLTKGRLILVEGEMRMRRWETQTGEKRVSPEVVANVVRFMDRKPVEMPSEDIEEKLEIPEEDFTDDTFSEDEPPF

B1: (dT)35 (ssDNA)
DNA: TTTTTTTTTTTTTTTTTTTTTTTTTTTTTTTTTTT
B2: single-stranded DNA-binding protein from Thermotoga neapolitana (TneSSB) (natural protein, UniProt D1M925 1-142, looked up)
chain: T2 sequence
notes: ssb gene amplified with primers from the ATG start codon to the TGA stop codon, cloned between NdeI and HindIII of pET30Ek/LIC (pETSSBTne); No tag is mentioned; cloning between NdeI and HindIII with the gene's own stop codon probably leaves out the vector's tags (surmised); also called T. neapolitana SSB; source: E. coli BL21(DE3)pLysS, purified (heat treatment at 80°C, QAE-cellulose, …)
B3: single-stranded DNA-binding protein from Thermotoga maritima (TmaSSB) (natural protein, UniProt Q9WZ73 1-141, looked up)
chain: T1 sequence
notes: ssb gene amplified with primers from the ATG start codon to the TGA stop codon, cloned between NdeI and HindIII of pET30Ek/LIC (pETSSBTma); No tag is mentioned; cloning between NdeI and HindIII with the gene's own stop codon probably leaves out the vector's tags (surmised); also called T. maritima SSB; source: E. coli BL21(DE3)pLysS, purified (heat treatment at 80°C, QAE-cellulose, …)
B4: (dT)60 (ssDNA)
DNA: TTTTTTTTTTTTTTTTTTTTTTTTTTTTTTTTTTTTTTTTTTTTTTTTTTTTTTTTTTTT
B5: (dT)120 (ssDNA)
DNA: TTTTTTTTTTTTTTTTTTTTTTTTTTTTTTTTTTTTTTTTTTTTTTTTTTTTTTTTTTTTTTTTTTTTTTTTTTTTTTTTTTTTTTTTTTTTTTTTTTTTTTTTTTTTTTTTTTTTTTTT
B6: (dT)76 (titration) (ssDNA)
DNA: TTTTTTTTTTTTTTTTTTTTTTTTTTTTTTTTTTTTTTTTTTTTTTTTTTTTTTTTTTTTTTTTTTTTTTTTTTTT
B7: (dT)76 (ssDNA)
DNA: B6 DNA

Legend:
TmaSSB [1] = molecular target: T1, TmaSSB; assay: EMSA (agarose); 2 or 100 mM NaCl; one tetramer; 20 mM Tris-HCl pH 7.5, 1 mM EDTA, 2 or 100 mM NaCl, 25°C; EMSA 10 pmol oligo (1.5 pmol M13) with 10-200 pmol SSB in 10 µl, 2% agarose in TAE; titration 1 nM SSB with 0-0.8 nM (dT)76; conditions: protein: recombinant; tags: none stated (NdeI/HindIII in pET30Ek/LIC, start and stop codon in primers); chain copies: 4; label: 5'-fluorescein (EMSA); single strand
TneSSB [2] = molecular target: T2, TneSSB; assay: as above; conditions: protein: recombinant; tags: none stated (NdeI/HindIII in pET30Ek/LIC, start and stop codon in primers); chain copies: 4; label: 5'-fluorescein (EMSA); single strand
[3] = molecular target: the molecule itself; assay: SEC; FPLC analytical gel filtration on a Superdex HR 75 column, calibrated with bovine albumin, ovalbumin, carbon anhydrase and cytochrome C; oligomeric state in solution
TmaSSB [4] = molecular target: T1, TmaSSB; assay: EMSA (agarose); 2 or 100 mM NaCl; two tetramers at high protein; 20 mM Tris-HCl pH 7.5, 1 mM EDTA, 2 or 100 mM NaCl, 25°C; EMSA 10 pmol oligo (1.5 pmol M13) with 10-200 pmol SSB in 10 µl, 2% agarose in TAE; titration 1 nM SSB with 0-0.8 nM (dT)76; conditions: protein: recombinant; tags: none stated (NdeI/HindIII in pET30Ek/LIC, start and stop codon in primers); chain copies: 4; label: 5'-fluorescein (EMSA); single strand
TneSSB [5] = molecular target: T2, TneSSB; assay: as above; conditions: protein: recombinant; tags: none stated (NdeI/HindIII in pET30Ek/LIC, start and stop codon in primers); chain copies: 4; label: 5'-fluorescein (EMSA); single strand
TmaSSB [6] = molecular target: T1, TmaSSB; assay: fluorescence titration (Trp quenching); 2 mM NaCl; cooperative affinity omega*K; site size 68 +/- 2 nt; quench 95%; 20 mM Tris-HCl pH 7.5, 1 mM EDTA, 2 or 100 mM NaCl, 25°C; EMSA 10 pmol oligo (1.5 pmol M13) with 10-200 pmol SSB in 10 µl, 2% agarose in TAE; titration 1 nM SSB with 0-0.8 nM (dT)76; conditions: protein: recombinant; tags: none stated (NdeI/HindIII in pET30Ek/LIC, start and stop codon in primers); chain copies: 4; single strand
TneSSB [7] = molecular target: T2, TneSSB; assay: as above; conditions: protein: recombinant; tags: none stated (NdeI/HindIII in pET30Ek/LIC, start and stop codon in primers); chain copies: 4; single strand

| Binder | binding result (TmaSSB [1]) | binding result (TneSSB [2]) | also measured |
| --- | --- | --- | --- |
| B1 | binds | binds | – |
| B2 | – | – | stoichiometry N [3]: 4 |
| B3 | – | – | stoichiometry N [3]: 4 |
| B4 | binds | binds | – |
| B5 | – | – | binding result (TmaSSB [4]): binds; binding result (TneSSB [5]): binds |
| B6 | – | – | binding result (TmaSSB [6]): binds; binding result (TneSSB [7]): binds |
| B7 | binds | binds | – |
